Measurements as given in paper PMC11588662 (2024).

Biological target: CD33 Db-FM (fluorescein-maleimide-labelled anti-CD33 diabody, clone SGN-33) (fluorescein-5-maleimide on the engineered C-terminal cysteine (added after the hexahistidine tag))
Assay: SPR

Kd: 7 nM
B1: extracellular domain of CD33, His-tagged protein (domain or fragment)
chain: DPNFWLQVQESVTVQEGLCVLVPCTFFHPIPYYDKNSPVHGYWFREGAIISRDSPVATNKLDQEVQEETQGRFRLLGDPSRNNCSLSIVDARRRDNGSYFFRMERGSTKYSYKSPQLSVHVTDLTHRPKILIPGTLEPGHSKNLTCSVSWACEQGTPPIFSWLSAAPTSLGPRTTHSSVLIITPRPQDHGTNLTCQVKFAGAGVTTERTIQLNVTYVPQNPTTGIFPGDGSGKQETRAGVVH
